In PMC7494816, “Stoichiometry of Rtt109 complexes with Vps75 and histones H3-H4” (Life Science Alliance, 2020):
Blank lines part the entries; values can stand above or below the binder they belong to.

Key:
[1] = target: T1, Xenopus laevis histones H3-H4 (wild type), refolded (Xenopus laevis, UniProt P84233 1-136; P62799 1-103); experiment: AUC; sedimentation velocity; 0.5 or 1 equivalent of H3-H4 or H3DM-H4 titrated against Vps75–Rtt109 reconstituted at 2:2 or 2:1 (relative to 7.5 μM Vps75), with 2:2 mixes of Vps75 and histones for reference; 20 mM Tris pH 7.5, 150 mM NaCl, 0.5 mM TCEP, 20°C; details: both partners purified
T1 construct: histone H3, Xenopus laevis, wild type; histone H4, Xenopus laevis; One H3-H4 dimer is the unit used for concentrations and equivalents; it can form the (H3-H4)2 tetramer; also called (H3-H4)2 tetramer; H3-H4 dimer; source: bought unfolded: the Histone Source at Colorado State University

[2] = target: the molecule itself; experiment: AUC; sedimentation velocity, van Holde–Weischet analysis; 7.5 μM Vps75 with 0, 0.5 and 1.0 equivalent of Rtt109; 20 mM Tris pH 7.5, 300 mM NaCl, 0.5 mM TCEP, 20°C
[3] = target: the molecule itself; experiment: AUC; sedimentation velocity, van Holde–Weischet analysis; 7.5 μM Vps75 with 0, 0.5 and 1.0 equivalent of Rtt109; 20 mM Tris pH 7.5, 150 mM NaCl, 0.5 mM TCEP, 20°C
[4] = target: the molecule itself; experiment: SEC-MALS; anion exchange peaks P1, P2, P3 of co-expressed, co-purified Vps75–Rtt109, 20 μM; Superdex 200 Increase 10/300 GL; 20 mM Tris–HCl pH 7.5, 300 mM NaCl, 0.5 mM TCEP

binding result [1]: binds
B1: Vps75 (Saccharomyces cerevisiae), individually expressed and purified (natural protein, UniProt P53853 1-264, looked up)
chain: MMSDQENENEHAKAFLGLAKCEEEVDAIEREVELYRLNKMKPVYEKRDAYIDEIAEFWKIVLSQHVSFANYIRASDFKYIDTIDKIKVEWLALESEMYDTRDFSITFHFHGIEGDFKEQQVTKVFQIKKGKDDQEDGILTSEPVPIEWPQSYDSINPDLIKDKRSPEGKKKYRQGMKTIFGWFRWTGLKPGKEFPHGDSLASLFSEEIYPFCVKYYAEAQRDLEDEEGESGLSADGDSEDDDGSLGEVDLPLSDEEPSSKKRKV
notes: Vps75, histone chaperone, Saccharomyces cerevisiae; also called Vps75 dimer; Vps75 tetramer; source: individually expressed and purified as previously described (Park et al, 2008)
stoichiometry N [2]: 2 chains of Vps75 (dimer) | stoichiometry N [3]: 4 chains of Vps75 (tetramer)

B2: Vps75 co-expressed with his–Rtt109 from pRSFDuet-1 (natural protein, Saccharomyces cerevisiae, UniProt P53853 1-264, looked up)
chain: B1 chain
notes: Vps75, Saccharomyces cerevisiae; multiple cloning site 2 of pRSFDuet-1; source: E. coli Rosetta (DE3) pLysS, co-expressed with his–Rtt109, in lysate; co-purified (HisTrap, MonoQ)
stoichiometry N [4]: 2 chains of Vps75 (dimer)
